Columns and labels:
ubiquitin (untagged) = biological target: T1, ubiquitin (untagged) (UniProt P0CG48 1-76); assay: ITC; 30 μM DUBm in the cell, 0.3 mM K48-linked diubiquitin or monoubiquitin injected; 25°C; 20 mM HEPES pH 7, 150 mM NaCl, 5 nM ZnCl2, 0.5 mM TCEP; one-site binding model; settings: both partners purified
T1 construct: ubiquitin, untagged (pET3a), free C-terminus at Gly76; also called monoubiquitin; free ubiquitin; source: E. coli Rosetta 2, purified (perchloric acid, HiTrap SP, HiLoad S75)

[1] = biological target: T2, N-terminally TAMRA-labeled monoubiquitin (UniProt P0CG48 1-76, TAMRA on the N-terminus); assay: fluorescence polarisation; equilibrium binding of USP4 to TAMRA-labelled ubiquitin species; as described in ref. 32; settings: both partners purified
T2 construct: ubiquitin with a free C-terminus; also called TAMRA-monoubiquitin; ubiquitin labeled with an N-terminal fluorophore

B1: SAGA DUB module containing wild-type Ubp8 (complex, yeast)
chain 1: MSICPHIQQVFQNEKSKDGVLKTCNAARYILNHSVPKEKFLNTMKCGTCHEINSGATFMCLQCGFCGCWNHSHFLSHSKQIGHIFGINSNNGLLFCFKCEDYIGNIDLINDAILAKYWDDVCTKTMVPSMERRDGLSGLINMGSTCFMSSILQCLIHNPYFIRHSMSQIHSNNCKVRSPDKCFSCALDKIVHELYGALNTKQASSSSTSTNRQTGFIYLLTCAWKINQNLAGYSQQDAHEFWQFIINQIHQSYVLDLPNAKEVSRANNKQCECIVHTVFEGSLESSIVCPGCQNNSKTTIDPFLDLSLDIKDKKKLYECLDSFHKKEQLKDFNYHCGECNSTQDAIKQLGIHKLPSVLVLQLKRFEHLLNGSNRKLDDFIEFPTYLNMKNYCSTKEKDKHSENGKVPDIIYELIGIVSHKGTVNEGHYIAFCKISGGQWFKFNDSMVSSISQEEVLKEQAYLLFYTIRQVN
chain 2: MTEETITIDSISNGILNNLLTTLIQDIVARETTQQQLLKTRYPDLRSYYFDPNGSLDINGLQKQQESSQYIHCENCGRDVSANRLAAHLQRCLSRGARR
chain 3: MTMDTAQLKSQIQQYLVESGNYELISNELKARLLQEGWVDKVKDLTKSEMNINESTNFTQILSTVEPKALEMVSDSTRETVLKQIREFLEEIVDTQ
chain 4: MRSGDAEIKGIKPKVIEEYSLSQGSGPSNDSWKSLMSSAKDTPLQYDHMNRESLKKYFNPNAQLIEDPLDKPIQYRVCEKCGKPLALTAIVDHLEN
notes: Ubp8, catalytic USP subunit of the yeast SAGA DUB module; Sgf11, subunit of the yeast SAGA DUB module (pCDFDuet-1 MCSI); Sus1, subunit of the yeast SAGA DUB module (pRSF-1); Sgf73 residues 1-96, subunit of the yeast SAGA DUB module (pCDFDuet-1 MCSII); Heterotetramer; also called DUBm-Ubp8^WT; wild-type DUBm; copies: + + +
Question: Which Kd (ubiquitin (untagged)) does the source give for B1 here?
Answer: 13.9 µM

B2: SAGA DUB module containing Ubp8^C146A (complex, yeast)
chain 1: MSICPHIQQVFQNEKSKDGVLKTCNAARYILNHSVPKEKFLNTMKCGTCHEINSGATFMCLQCGFCGCWNHSHFLSHSKQIGHIFGINSNNGLLFCFKCEDYIGNIDLINDAILAKYWDDVCTKTMVPSMERRDGLSGLINMGSTAFMSSILQCLIHNPYFIRHSMSQIHSNNCKVRSPDKCFSCALDKIVHELYGALNTKQASSSSTSTNRQTGFIYLLTCAWKINQNLAGYSQQDAHEFWQFIINQIHQSYVLDLPNAKEVSRANNKQCECIVHTVFEGSLESSIVCPGCQNNSKTTIDPFLDLSLDIKDKKKLYECLDSFHKKEQLKDFNYHCGECNSTQDAIKQLGIHKLPSVLVLQLKRFEHLLNGSNRKLDDFIEFPTYLNMKNYCSTKEKDKHSENGKVPDIIYELIGIVSHKGTVNEGHYIAFCKISGGQWFKFNDSMVSSISQEEVLKEQAYLLFYTIRQVN
chain 2: MTEETITIDSISNGILNNLLTTLIQDIVARETTQQQLLKTRYPDLRSYYFDPNGSLDINGLQKQQESSQYIHCENCGRDVSANRLAAHLQRCLSRGARR
chain 3: MTMDTAQLKSQIQQYLVESGNYELISNELKARLLQEGWVDKVKDLTKSEMNINESTNFTQILSTVEPKALEMVSDSTRETVLKQIREFLEEIVDTQ
chain 4: MRSGDAEIKGIKPKVIEEYSLSQGSGPSNDSWKSLMSSAKDTPLQYDHMNRESLKKYFNPNAQLIEDPLDKPIQYRVCEKCGKPLALTAIVDHLEN
notes: Ubp8, catalytic USP subunit of the yeast SAGA DUB module, active site cysteine changed; Sgf11, subunit of the yeast SAGA DUB module (pCDFDuet-1 MCSI); Sus1, subunit of the yeast SAGA DUB module (pRSF-1); Sgf73 residues 1-96, subunit of the yeast SAGA DUB module (pCDFDuet-1 MCSII); Heterotetramer; also called DUBm-Ubp8^C146A; DUB module-Ubp8^C146A; copies: + + +
Question: Which Kd (ubiquitin (untagged)) does the source give for B2 here?
Answer: 0.43 µM

B3: SAGA DUB module containing Ubp8^C146S (complex, yeast)
chain 1: MSICPHIQQVFQNEKSKDGVLKTCNAARYILNHSVPKEKFLNTMKCGTCHEINSGATFMCLQCGFCGCWNHSHFLSHSKQIGHIFGINSNNGLLFCFKCEDYIGNIDLINDAILAKYWDDVCTKTMVPSMERRDGLSGLINMGSTSFMSSILQCLIHNPYFIRHSMSQIHSNNCKVRSPDKCFSCALDKIVHELYGALNTKQASSSSTSTNRQTGFIYLLTCAWKINQNLAGYSQQDAHEFWQFIINQIHQSYVLDLPNAKEVSRANNKQCECIVHTVFEGSLESSIVCPGCQNNSKTTIDPFLDLSLDIKDKKKLYECLDSFHKKEQLKDFNYHCGECNSTQDAIKQLGIHKLPSVLVLQLKRFEHLLNGSNRKLDDFIEFPTYLNMKNYCSTKEKDKHSENGKVPDIIYELIGIVSHKGTVNEGHYIAFCKISGGQWFKFNDSMVSSISQEEVLKEQAYLLFYTIRQVN
chain 2: MTEETITIDSISNGILNNLLTTLIQDIVARETTQQQLLKTRYPDLRSYYFDPNGSLDINGLQKQQESSQYIHCENCGRDVSANRLAAHLQRCLSRGARR
chain 3: MTMDTAQLKSQIQQYLVESGNYELISNELKARLLQEGWVDKVKDLTKSEMNINESTNFTQILSTVEPKALEMVSDSTRETVLKQIREFLEEIVDTQ
chain 4: MRSGDAEIKGIKPKVIEEYSLSQGSGPSNDSWKSLMSSAKDTPLQYDHMNRESLKKYFNPNAQLIEDPLDKPIQYRVCEKCGKPLALTAIVDHLEN
notes: Ubp8, catalytic USP subunit of the yeast SAGA DUB module, active site cysteine changed; Sgf11, subunit of the yeast SAGA DUB module (pCDFDuet-1 MCSI); Sus1, subunit of the yeast SAGA DUB module (pRSF-1); Sgf73 residues 1-96, subunit of the yeast SAGA DUB module (pCDFDuet-1 MCSII); Heterotetramer; also called DUBm-Ubp8^C146S; copies: + + +
Question: Which Kd (ubiquitin (untagged)) does the source give for B3 here?
Answer: 12.8 µM

B4: USP4 (8-925) C311A (enzyme, human, UniProt Q13107 8-925, looked up)
chain: RERPDAETQKSELGPLMRTTLQRGAQWYLIDSRWFKQWKKYVGFDSWDMYNVGEHNLFPGPIDNSGLFSDPESQTLKEHLIDELDYVLVPTEAWNKLLNWYGCVEGQQPIVRKVVEHGLFVKHCKVEVYLLELKLCENSDPTNVLSCHFSKADTIATIEKEMRKLFNIPAERETRLWNKYMSNTYEQLSKLDNTVQDAGLYQGQVLVIEPQNEDGTWPRQTLQSKSSTAPSRNFTTSPKSSASPYSSVSASLIANGDSTSTCGMHSSGVSRGGSGFSASYNCQEPPSSHIQPGLCGLGNLGNTAFMNSALQCLSNTAPLTDYFLKDEYEAEINRDNPLGMKGEIAEAYAELIKQMWSGRDAHVAPRMFKTQVGRFAPQFSGYQQQDSQELLAFLLDGLHEDLNRVKKKPYLELKDANGRPDAVVAKEAWENHRLRNDSVIVDTFHGLFKSTLVCPECAKVSVTFDPFCYLTLPLPLKKDRVMEVFLVPADPHCRPTQYRVTVPLMGAVSDLCEALSRLSGIAAENMVVADVYNHRFHKIFQMDEGLNHIMPRDDIFVYEVCSTSVDGSECVTLPVYFRERKSRPSSTSSASALYGQPLLLSVPKHKLTLESLYQAVCDRISRYVKQPLPDEFGSSPLEPGACNGSRNSCEGEDEEEMEHQEEGKEQLSETEGSGEDEPGNDPSETTQKKIKGQPCPKRLFTFSLVNSYGTADINSLAADGKLLKLNSRSTLAMDWDSETRRLYYDEQESEAYEKHVSMLQPQKKKKTTVALRDCIELFTTMETLGEHDPWYCPNCKKHQQATKKFDLWSLPKILVVHLKRFSYNRYWRDKLDTVVEFPIRGLNMSEFVCNLSARPYVYDLIAVSNHYGAMGVGHYTAYAKNKLNGKWYYFDDSNVSLASEDQIVTKAAYVLFYQRRDD
notes: human USP4, residues 8-925, active site cysteine C311 changed to alanine; also called USP4^C311A; USP4 C311A
Question: Which Kd [1] does the source give for B4 here?
Answer: 0.0006 ± 0.00017 µM

From PMC6172466 (EMBO Reports, 2018)
